Laboratory results from patent publication US20190077860A1 (EISAI R AND D MANAGEMENT, published 2019).

T1: human EphA1 extracellular region-SEAP-His protein (human, UniProt P21709 26-547)
T1 construct: extracellular domain; also called hEphA1-SEAP-His
T1 sequence (looked up): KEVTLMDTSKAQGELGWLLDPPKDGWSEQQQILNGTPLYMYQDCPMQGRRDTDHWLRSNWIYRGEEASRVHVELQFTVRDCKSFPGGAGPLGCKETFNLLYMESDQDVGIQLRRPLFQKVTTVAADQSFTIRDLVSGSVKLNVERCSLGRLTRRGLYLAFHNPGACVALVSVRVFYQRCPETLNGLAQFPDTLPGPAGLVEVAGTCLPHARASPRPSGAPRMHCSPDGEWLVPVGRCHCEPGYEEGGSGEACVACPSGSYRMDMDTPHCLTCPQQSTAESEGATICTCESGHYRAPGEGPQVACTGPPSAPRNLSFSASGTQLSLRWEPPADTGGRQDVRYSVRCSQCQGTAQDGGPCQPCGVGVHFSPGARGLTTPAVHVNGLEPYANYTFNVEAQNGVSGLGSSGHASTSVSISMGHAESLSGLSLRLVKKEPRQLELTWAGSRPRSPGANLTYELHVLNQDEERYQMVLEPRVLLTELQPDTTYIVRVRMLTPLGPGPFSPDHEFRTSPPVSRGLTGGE

T2: human EphA3 extracellular region-SEAP-His protein (human, UniProt P29320 21-541)
T2 construct: extracellular domain; also called hEphA3-SEAP-His
T2 sequence (looked up): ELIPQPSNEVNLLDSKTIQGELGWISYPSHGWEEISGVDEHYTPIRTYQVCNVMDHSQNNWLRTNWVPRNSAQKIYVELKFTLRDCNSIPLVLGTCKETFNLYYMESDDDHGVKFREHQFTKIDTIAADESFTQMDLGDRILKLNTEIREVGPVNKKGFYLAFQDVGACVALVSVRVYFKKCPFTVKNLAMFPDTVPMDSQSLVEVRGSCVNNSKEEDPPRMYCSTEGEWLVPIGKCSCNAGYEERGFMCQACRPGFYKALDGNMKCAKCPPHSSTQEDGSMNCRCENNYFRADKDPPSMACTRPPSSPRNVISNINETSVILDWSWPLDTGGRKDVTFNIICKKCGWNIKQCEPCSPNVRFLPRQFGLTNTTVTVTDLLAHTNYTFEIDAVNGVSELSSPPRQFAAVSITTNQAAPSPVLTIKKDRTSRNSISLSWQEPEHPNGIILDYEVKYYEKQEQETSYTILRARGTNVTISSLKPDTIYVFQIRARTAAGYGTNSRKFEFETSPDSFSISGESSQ

T3: human EphA8 extracellular region-SEAP-His protein (human, UniProt P29322 28-542)
T3 construct: extracellular domain; also called hEphA8-SEAP-His
T3 sequence (looked up): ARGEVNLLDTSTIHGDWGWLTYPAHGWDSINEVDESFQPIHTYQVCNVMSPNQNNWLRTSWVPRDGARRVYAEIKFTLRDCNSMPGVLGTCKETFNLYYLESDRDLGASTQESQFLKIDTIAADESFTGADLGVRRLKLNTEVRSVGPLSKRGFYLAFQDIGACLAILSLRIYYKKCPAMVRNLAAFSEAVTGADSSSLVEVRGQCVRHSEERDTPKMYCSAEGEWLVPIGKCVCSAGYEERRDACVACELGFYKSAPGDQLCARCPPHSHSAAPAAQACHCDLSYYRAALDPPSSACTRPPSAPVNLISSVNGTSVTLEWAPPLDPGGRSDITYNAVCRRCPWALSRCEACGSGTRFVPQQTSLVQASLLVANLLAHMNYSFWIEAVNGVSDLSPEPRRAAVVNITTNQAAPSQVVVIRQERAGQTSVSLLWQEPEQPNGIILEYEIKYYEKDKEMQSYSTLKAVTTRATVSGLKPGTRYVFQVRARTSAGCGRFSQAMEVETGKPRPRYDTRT

T4: human EphB1 extracellular region-SEAP-His protein (human, UniProt P54762 18-540)
T4 construct: extracellular domain; also called hEphB1-SEAP-His
T4 sequence (looked up): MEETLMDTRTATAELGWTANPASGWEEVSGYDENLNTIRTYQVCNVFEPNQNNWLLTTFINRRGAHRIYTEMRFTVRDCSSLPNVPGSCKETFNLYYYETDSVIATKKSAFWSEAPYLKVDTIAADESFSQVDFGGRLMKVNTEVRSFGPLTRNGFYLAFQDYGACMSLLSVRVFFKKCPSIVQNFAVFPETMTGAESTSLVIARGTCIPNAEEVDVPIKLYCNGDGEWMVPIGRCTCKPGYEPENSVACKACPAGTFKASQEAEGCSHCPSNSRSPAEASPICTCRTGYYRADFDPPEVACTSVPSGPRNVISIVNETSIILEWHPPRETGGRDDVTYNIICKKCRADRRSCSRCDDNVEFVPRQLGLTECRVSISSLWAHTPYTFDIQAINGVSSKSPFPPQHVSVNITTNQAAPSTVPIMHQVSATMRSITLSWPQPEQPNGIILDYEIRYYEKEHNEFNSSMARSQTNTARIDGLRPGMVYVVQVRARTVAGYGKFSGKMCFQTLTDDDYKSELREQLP


Experiments:
Assay in all cases: ELISA
[1] = molecular target: T1, human EphA1 extracellular …
[2] = molecular target: T5, human EphA2 extracellular region-SEAP-His protein (human, UniProt P29317 24-537)
T5 construct: extracellular domain; also called hEphA2-SEAP-His

[3] = molecular target: T2, human EphA3 extracellular …
[4] = molecular target: T3, human EphA8 extracellular …
[5] = molecular target: T4, human EphB1 extracellular …
[6] = molecular target: T6, human EphA4 extracellular region-SEAP-His protein (human, UniProt P54764 20-547)
T6 construct: also called hEphA4-SEAP-His
T6 sequence (P54764 20-547): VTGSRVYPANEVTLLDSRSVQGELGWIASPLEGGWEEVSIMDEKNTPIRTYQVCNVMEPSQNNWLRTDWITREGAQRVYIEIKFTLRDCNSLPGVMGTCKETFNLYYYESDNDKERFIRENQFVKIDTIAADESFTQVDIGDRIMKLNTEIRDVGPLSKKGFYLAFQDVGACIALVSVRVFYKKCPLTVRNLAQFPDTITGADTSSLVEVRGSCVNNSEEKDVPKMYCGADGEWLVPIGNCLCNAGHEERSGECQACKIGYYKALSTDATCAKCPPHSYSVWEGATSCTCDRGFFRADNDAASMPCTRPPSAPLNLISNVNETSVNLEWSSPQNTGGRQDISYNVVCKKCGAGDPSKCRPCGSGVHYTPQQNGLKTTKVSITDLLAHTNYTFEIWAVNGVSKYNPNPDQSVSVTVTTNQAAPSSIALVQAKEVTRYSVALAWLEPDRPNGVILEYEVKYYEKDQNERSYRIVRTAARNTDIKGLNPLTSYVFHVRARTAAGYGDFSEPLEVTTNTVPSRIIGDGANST

T5 sequence (P29317 24-537): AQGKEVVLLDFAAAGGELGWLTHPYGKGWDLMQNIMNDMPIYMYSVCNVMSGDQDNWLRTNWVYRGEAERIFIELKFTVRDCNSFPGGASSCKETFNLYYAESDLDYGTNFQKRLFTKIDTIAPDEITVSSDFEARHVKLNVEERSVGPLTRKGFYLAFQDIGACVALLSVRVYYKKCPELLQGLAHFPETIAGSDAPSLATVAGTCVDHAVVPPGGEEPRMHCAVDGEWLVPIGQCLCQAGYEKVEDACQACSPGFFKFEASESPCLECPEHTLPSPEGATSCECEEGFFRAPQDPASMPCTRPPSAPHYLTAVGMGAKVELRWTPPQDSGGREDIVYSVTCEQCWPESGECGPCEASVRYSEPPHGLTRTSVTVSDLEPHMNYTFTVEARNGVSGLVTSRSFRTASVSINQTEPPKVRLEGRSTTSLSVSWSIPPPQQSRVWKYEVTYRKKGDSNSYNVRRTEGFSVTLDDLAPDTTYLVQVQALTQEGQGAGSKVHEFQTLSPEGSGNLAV

| A450 as % of hEphA4-SEAP-His [1] [%] | A450 as % of hEphA4-SEAP-His [2] [%] | A450 as % of hEphA4-SEAP-His [3] [%] | A450 as % of hEphA4-SEAP-His [4] [%] | A450 as % of hEphA4-SEAP-His [5] [%] | A450 as % of hEphA4-SEAP-His [6] [%] | Binder |
| --- | --- | --- | --- | --- | --- | --- |
| 7.1 | 6.9 | 6.9 | 6.9 | 6.8 | 100 | humanized antibody No. 151 (antibody, human IgG2, human Ig kappa; also called L1-5/HA4) heavy: QIQLVQSGSELKKPGASVKVSCKASGYTFTDYSMHWVRQAPGQGLKWMGWINTETGEPTYAQGFTGRFVFSLDTSVSTAYLQISSLKAEDTAVYYCARIPLYYYGSRYWYFDVWGQGTTVTVSSASTKGPSVFPLAPSSRSTSESTAALGCLVKDYFPEPVTVSWNSGALTSGVHTFPAVLQSSGLYSLSSVVTVPSSNFGTQTYTCNVDHKPSNTKVDKTVERKSCVECPPCPAPPAAAPSVFLFPPKPKDTLMISRTPEVTCVVVDVSHEDPEVQFNWYVDGVEVHNAKTKPREEQFNSTFRVVSVLTVVHQDWLNGKEYKCKVSNKGLPAPIEKTISKTKGQPREPQVYTLPPSREEMTKNQVSLTCLVKGFYPSDIAVEWESNGQPENNYKTTPPMLDSDGSFFLYSKLTVDKSRWQQGNVFSCSVMHEALHNHYTQKSLSLSPG light: DIQMTQSPSSLSASVGDRVTITCRASENIYRNLAWYQQKPGKAPKLLLYAATNLADGVPSRFSGSGSGTDYTLTISSLQSEDFATYYCQHFWGTPWTFGQGTKVEIKRTVAAPSVFIFPPSDEQLKSGTASVVCLLNNFYPREAKVQWKVDNALQSGNSQESVTEQDSKDSTYSLSSTLTLSKADYEKHKVYACEVTHQGLSSPVTKSFNRGEC |
| 6.3 | 6 | 6.1 | 6.1 | 6 | 100 | humanized antibody No. 153 (antibody, human IgG2, human Ig kappa; also called L1-5/HA2) heavy: QVQLVQSGSELKKPGASVKVSCKASGYTFTDYSMHWVRQAPGQGLKWMGWINTETGEPTYAQGFTGRFVFSLDTSVSTAYLQISSLKAEDTAVYYCARIPLYYYGSRYWYFDVWGQGTTVTVSSASTKGPSVFPLAPSSRSTSESTAALGCLVKDYFPEPVTVSWNSGALTSGVHTFPAVLQSSGLYSLSSVVTVPSSNFGTQTYTCNVDHKPSNTKVDKTVERKSCVECPPCPAPPAAAPSVFLFPPKPKDTLMISRTPEVTCVVVDVSHEDPEVQFNWYVDGVEVHNAKTKPREEQFNSTFRVVSVLTVVHQDWLNGKEYKCKVSNKGLPAPIEKTISKTKGQPREPQVYTLPPSREEMTKNQVSLTCLVKGFYPSDIAVEWESNGQPENNYKTTPPMLDSDGSFFLYSKLTVDKSRWQQGNVFSCSVMHEALHNHYTQKSLSLSPG light: DIQMTQSPSSLSASVGDRVTITCRASENIYRNLAWYQQKPGKAPKLLLYAATNLADGVPSRFSGSGSGTDYTLTISSLQSEDFATYYCQHFWGTPWTFGQGTKVEIKRTVAAPSVFIFPPSDEQLKSGTASVVCLLNNFYPREAKVQWKVDNALQSGNSQESVTEQDSKDSTYSLSSTLTLSKADYEKHKVYACEVTHQGLSSPVTKSFNRGEC |
| 6.4 | 6.2 | 6.2 | 5.5 | 6.3 | 100 | humanized antibody No. 154 (antibody, human IgG2, human Ig kappa; also called L1-5/HK1) heavy: QVQLVQSGSELKKPGASVKVSCKASGYTFTDYSMHWVRQAPGQGLEWMGWINTETGEPTYADDFKGRFVFSLDTSVSTAYLQISSLKAEDTAVYYCARIPLYYYGSRYWYFDVWGQGTTVTVSSASTKGPSVFPLAPSSRSTSESTAALGCLVKDYFPEPVTVSWNSGALTSGVHTFPAVLQSSGLYSLSSVVTVPSSNFGTQTYTCNVDHKPSNTKVDKTVERKSCVECPPCPAPPAAAPSVFLFPPKPKDTLMISRTPEVTCVVVDVSHEDPEVQFNWYVDGVEVHNAKTKPREEQFNSTFRVVSVLTVVHQDWLNGKEYKCKVSNKGLPAPIEKTISKTKGQPREPQVYTLPPSREEMTKNQVSLTCLVKGFYPSDIAVEWESNGQPENNYKTTPPMLDSDGSFFLYSKLTVDKSRWQQGNVFSCSVMHEALHNHYTQKSLSLSPG light: DIQMTQSPSSLSASVGDRVTITCRASENIYRNLAWYQQKPGKAPKLLLYAATNLADGVPSRFSGSGSGTDYTLTISSLQSEDFATYYCQHFWGTPWTFGQGTKVEIKRTVAAPSVFIFPPSDEQLKSGTASVVCLLNNFYPREAKVQWKVDNALQSGNSQESVTEQDSKDSTYSLSSTLTLSKADYEKHKVYACEVTHQGLSSPVTKSFNRGEC |
| 5.8 | 5.8 | 5.8 | 6 | 5.9 | 100 | humanized antibody No. 152 (antibody, human IgG2, human Ig kappa; also called L1-5/HA1) heavy: QVQLVQSGSELKKPGASVKVSCKASGYTFTDYSMHWVRQAPGQGLEWMGWINTETGEPTYAQGFTGRFVFSLDTSVSTAYLQISSLKAEDTAVYYCARIPLYYYGSRYWYFDVWGQGTTVTVSSASTKGPSVFPLAPSSRSTSESTAALGCLVKDYFPEPVTVSWNSGALTSGVHTFPAVLQSSGLYSLSSVVTVPSSNFGTQTYTCNVDHKPSNTKVDKTVERKSCVECPPCPAPPAAAPSVFLFPPKPKDTLMISRTPEVTCVVVDVSHEDPEVQFNWYVDGVEVHNAKTKPREEQFNSTFRVVSVLTVVHQDWLNGKEYKCKVSNKGLPAPIEKTISKTKGQPREPQVYTLPPSREEMTKNQVSLTCLVKGFYPSDIAVEWESNGQPENNYKTTPPMLDSDGSFFLYSKLTVDKSRWQQGNVFSCSVMHEALHNHYTQKSLSLSPG light: DIQMTQSPSSLSASVGDRVTITCRASENIYRNLAWYQQKPGKAPKLLLYAATNLADGVPSRFSGSGSGTDYTLTISSLQSEDFATYYCQHFWGTPWTFGQGTKVEIKRTVAAPSVFIFPPSDEQLKSGTASVVCLLNNFYPREAKVQWKVDNALQSGNSQESVTEQDSKDSTYSLSSTLTLSKADYEKHKVYACEVTHQGLSSPVTKSFNRGEC |
